This test addresses T1, Biotin-labeled MHV stem helix peptide (MHV, also: biotin label, position not given here).
T1 chain: PDFKEELDKWFKNQ
Briefly: BLI. (In general: BLI is a label-free optical method that tracks binding on a fibre tip over time.)

The values that follow come from paper doi:10.1101/2024.06.06.597810 (2024).

Where no end group is shown, it is not given here.

B1: S2P6 UCA VH Y32Q/M48I double mutant Fab (Fab, V domains shown)
VH: QVQLVQSGAEVKKPGASVKVSCKASGYTFTSQYMHWVRQAPGQGLEWIGIINPSGGSTSYAQKFQGRVTMTRDTSTSTVYMELSSLRSEDTAVYYCARGSPKGAFDYWGQGTLVTVSS
VL: not shown
For B1, the dissociation constant Kd (in general, the free concentration of one partner at which half of the binding sites on the other are occupied at equilibrium, for simple one-to-one binding) was determined as 1190 nM.

B2: S2P6 UCA VH M48I/S56H double mutant Fab (Fab, V domains shown)
VH: QVQLVQSGAEVKKPGASVKVSCKASGYTFTSYYMHWVRQAPGQGLEWIGIINPSGGHTSYAQKFQGRVTMTRDTSTSTVYMELSSLRSEDTAVYYCARGSPKGAFDYWGQGTLVTVSS
VL: not shown
Molecule B2 gave an equilibrium dissociation constant (Kd) of 1300 nM.

B3: S2P6 UCA VH S56H Fab (Fab, V domains shown)
VH: QVQLVQSGAEVKKPGASVKVSCKASGYTFTSYYMHWVRQAPGQGLEWMGIINPSGGHTSYAQKFQGRVTMTRDTSTSTVYMELSSLRSEDTAVYYCARGSPKGAFDYWGQGTLVTVSS
VL: not shown
Turning to B3, the affinity, expressed as Kd, was 3760 nM.

B4: S2P6 UCA VH Y32Q/M48I/S56H triple mutant Fab (Fab, V domains shown)
VH: QVQLVQSGAEVKKPGASVKVSCKASGYTFTSQYMHWVRQAPGQGLEWIGIINPSGGHTSYAQKFQGRVTMTRDTSTSTVYMELSSLRSEDTAVYYCARGSPKGAFDYWGQGTLVTVSS
VL: not shown
Turning to B4, binding was put at a Kd of 2230 nM.

B5: S2P6 UCA VH Y32Q Fab (Fab, V domains shown)
VH: QVQLVQSGAEVKKPGASVKVSCKASGYTFTSQYMHWVRQAPGQGLEWMGIINPSGGSTSYAQKFQGRVTMTRDTSTSTVYMELSSLRSEDTAVYYCARGSPKGAFDYWGQGTLVTVSS
VL: not shown
Consider B5, for which the affinity, expressed as Kd, was 2260 nM.

B6: S2P6 UCA VH M48I Fab (Fab, V domains shown)
VH: QVQLVQSGAEVKKPGASVKVSCKASGYTFTSYYMHWVRQAPGQGLEWIGIINPSGGSTSYAQKFQGRVTMTRDTSTSTVYMELSSLRSEDTAVYYCARGSPKGAFDYWGQGTLVTVSS
VL: not shown
B6 showed a Kd of 731 nM.
